# Tested on: Escherichia coli TOP10
# Assay: shrunken log2 fold change of peptide-encoding DNA abundance (4.5 h post-induction vs induction); higher = less antimicrobial activity (less host growth inhibition)
# Conditions: time post-induction: 4.5 h; library: site-saturation at positions 5, 18, 19, 20
# 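Note: peptides expressed intracellularly from a pBAD plasmid library in pooled LB shake-flask culture, induced with 0.3% L-arabinose, DNA abundance read by NGS, three biological replicates, DESeq2 with apeglm shrinkage.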
row,Sequence,shrunken log2 fold change
1,RRIRARPPRLPRPRPRPVNPPRP,-0.00864
2,RRIRQRPPRLPRPRPRPIMQPRP,-0.0377
3,RRIRLRPPRLPRPRPRPMTDPRP,-0.189
4,RRIRMRPPRLPRPRPRPTWHPRP,0.309
5,RRIRSRPPRLPRPRPRPAEVPRP,-0.0708
6,RRIRERPPRLPRPRPRPIKDPRP,-0.168
7,RRIRWRPPRLPRPRPRPAQKPRP,0.157
8,RRIRNRPPRLPRPRPRPMCYPRP,-0.0198
9,RRIRHRPPRLPRPRPRPHKHPRP,-0.546
10,RRIRARPPRLPRPRPRPIGMPRP,0.0267
11,RRIRARPPRLPRPRPRPEQAPRP,0.759
12,RRIRDRPPRLPRPRPRPQQTPRP,-0.252
13,RRIRMRPPRLPRPRPRPAWAPRP,0.663
14,RRIRDRPPRLPRPRPRPSLWPRP,1.09
15,RRIRSRPPRLPRPRPRPRNAPRP,0.374
16,RRIRERPPRLPRPRPRPLFCPRP,-0.211
17,RRIRLRPPRLPRPRPRPWVSPRP,0.442
18,RRIRQRPPRLPRPRPRPRQSPRP,0.0272
19,RRIRWRPPRLPRPRPRPRWRPRP,0.552
20,RRIRLRPPRLPRPRPRPTKLPRP,-0.0137
21,RRIRVRPPRLPRPRPRPYAYPRP,0.0587
22,RRIRDRPPRLPRPRPRPYSFPRP,-0.0868
23,RRIRHRPPRLPRPRPRPYWIPRP,-0.124
24,RRIRKRPPRLPRPRPRPHGSPRP,-0.0695
25,RRIRDRPPRLPRPRPRPDLFPRP,0.0296

row,Sequence,shrunken log2 fold change
1,RRIRCRPPRLPRPRPRPDWKPRP,0.0808
2,RRIRCRPPRLPRPRPRPYDAPRP,-0.334
3,RRIRFRPPRLPRPRPRPYWGPRP,-0.186
4,RRIRQRPPRLPRPRPRPRSRPRP,0.0402
5,RRIRQRPPRLPRPRPRPGCAPRP,0.507
6,RRIRLRPPRLPRPRPRPVVRPRP,0.148
7,RRIRERPPRLPRPRPRPGLPPRP,-0.112
8,RRIRDRPPRLPRPRPRPFSYPRP,-0.22
9,RRIRNRPPRLPRPRPRPHAHPRP,-0.0247
10,RRIRRRPPRLPRPRPRPKYIPRP,-0.135
11,RRIRGRPPRLPRPRPRPCKCPRP,-0.082
12,RRIRWRPPRLPRPRPRPGKPPRP,0.066
13,RRIRMRPPRLPRPRPRPNIGPRP,-0.0302
14,RRIRIRPPRLPRPRPRPTHFPRP,-0.0417
15,RRIRQRPPRLPRPRPRPLVNPRP,-0.0122
16,RRIRRRPPRLPRPRPRPELHPRP,0.793
17,RRIRHRPPRLPRPRPRPTSLPRP,-0.135
18,RRIRPRPPRLPRPRPRPRLTPRP,0.293
19,RRIRVRPPRLPRPRPRPKNVPRP,-0.0901
20,RRIRCRPPRLPRPRPRPRWVPRP,2.6
21,RRIRNRPPRLPRPRPRPQEWPRP,-0.00211
22,RRIRYRPPRLPRPRPRPLMAPRP,-0.681
23,RRIRERPPRLPRPRPRPPTYPRP,-0.168
24,RRIRARPPRLPRPRPRPHFKPRP,0.00608
25,RRIRLRPPRLPRPRPRPGYGPRP,0.0339

row,Sequence,shrunken log2 fold change
1,RRIRWRPPRLPRPRPRPRSIPRP,-0.006
2,RRIRGRPPRLPRPRPRPQWSPRP,0.157
3,RRIRHRPPRLPRPRPRPVEEPRP,0.00298
4,RRIRTRPPRLPRPRPRPYPSPRP,-0.575
5,RRIRNRPPRLPRPRPRPYQHPRP,-0.549
6,RRIRNRPPRLPRPRPRPHRKPRP,0.0299
7,RRIRARPPRLPRPRPRPEKCPRP,-0.15
8,RRIRPRPPRLPRPRPRPNVEPRP,0.0775
9,RRIRRRPPRLPRPRPRPQMPPRP,0.283
10,RRIRHRPPRLPRPRPRPCGVPRP,-0.00991
11,RRIRHRPPRLPRPRPRPVHVPRP,-0.16
12,RRIRTRPPRLPRPRPRPVQPPRP,0.238
13,RRIRTRPPRLPRPRPRPEFYPRP,-0.212
14,RRIRGRPPRLPRPRPRPGNFPRP,-0.00767
15,RRIRHRPPRLPRPRPRPLAPPRP,0.196
16,RRIRFRPPRLPRPRPRPTHYPRP,-0.0275
17,RRIRFRPPRLPRPRPRPHKTPRP,-0.0597
18,RRIRLRPPRLPRPRPRPALHPRP,0.135
19,RRIRWRPPRLPRPRPRPIGHPRP,0.0282
20,RRIRTRPPRLPRPRPRPDQTPRP,-0.0468
21,RRIRFRPPRLPRPRPRPRFPPRP,0.0497
22,RRIRMRPPRLPRPRPRPGTLPRP,-0.02
23,RRIRARPPRLPRPRPRPNMTPRP,0.147
24,RRIRQRPPRLPRPRPRPRWCPRP,-0.0737
25,RRIRCRPPRLPRPRPRPKVEPRP,0.345

row,Sequence,shrunken log2 fold change
1,RRIRYRPPRLPRPRPRPWYPPRP,-0.485
2,RRIRVRPPRLPRPRPRPHLFPRP,0.461
3,RRIRVRPPRLPRPRPRPGGSPRP,0.0297
4,RRIRERPPRLPRPRPRPSSHPRP,-0.0471
5,RRIRYRPPRLPRPRPRPSVIPRP,-0.616
6,RRIRDRPPRLPRPRPRPFVFPRP,0.175
7,RRIRWRPPRLPRPRPRPVRYPRP,0.00421
8,RRIRQRPPRLPRPRPRPRVLPRP,-0.0985
9,RRIRLRPPRLPRPRPRPMLVPRP,-0.225
10,RRIRHRPPRLPRPRPRPFHAPRP,-0.0061
11,RRIRTRPPRLPRPRPRPVHYPRP,0.0226
12,RRIRPRPPRLPRPRPRPHSLPRP,-0.0621
13,RRIRDRPPRLPRPRPRPFISPRP,-0.0503
14,RRIRCRPPRLPRPRPRPSTDPRP,-0.348
15,RRIRRRPPRLPRPRPRPATMPRP,0.876
16,RRIRMRPPRLPRPRPRPTDIPRP,0.501
17,RRIRVRPPRLPRPRPRPHPAPRP,0.296
18,RRIRWRPPRLPRPRPRPLWWPRP,0.927
19,RRIRVRPPRLPRPRPRPAAEPRP,0.109
20,RRIRHRPPRLPRPRPRPPTSPRP,-0.128
21,RRIRMRPPRLPRPRPRPPWFPRP,0.568
22,RRIRVRPPRLPRPRPRPWTEPRP,-0.0547
23,RRIRIRPPRLPRPRPRPFENPRP,-0.00783
24,RRIRARPPRLPRPRPRPRMKPRP,0.457
25,RRIRIRPPRLPRPRPRPCKSPRP,-0.133

row,Sequence,shrunken log2 fold change
1,RRIRPRPPRLPRPRPRPAKLPRP,0.0398
2,RRIRERPPRLPRPRPRPKNSPRP,-0.52
3,RRIRERPPRLPRPRPRPFIVPRP,-0.218
4,RRIRWRPPRLPRPRPRPTKFPRP,0.142
5,RRIRARPPRLPRPRPRPWQYPRP,-0.123
6,RRIRSRPPRLPRPRPRPYRPPRP,-0.365
7,RRIRFRPPRLPRPRPRPSTTPRP,-0.362
8,RRIRARPPRLPRPRPRPKHQPRP,0.324
9,RRIRMRPPRLPRPRPRPWPNPRP,0.25
10,RRIRPRPPRLPRPRPRPEKHPRP,0.418
11,RRIRGRPPRLPRPRPRPTPCPRP,0.662
12,RRIRMRPPRLPRPRPRPRFSPRP,0.206
13,RRIRDRPPRLPRPRPRPWFQPRP,-0.0572
14,RRIRCRPPRLPRPRPRPAGWPRP,0.719
15,RRIRLRPPRLPRPRPRPHYHPRP,-1.26
16,RRIRYRPPRLPRPRPRPRVFPRP,-0.167
17,RRIRERPPRLPRPRPRPTSVPRP,-0.028
18,RRIRERPPRLPRPRPRPNTTPRP,0.123
19,RRIRLRPPRLPRPRPRPWTTPRP,-0.206
20,RRIRKRPPRLPRPRPRPGGPPRP,0.453
21,RRIRMRPPRLPRPRPRPDAEPRP,4.37
22,RRIRFRPPRLPRPRPRPWMSPRP,-0.0139
23,RRIRIRPPRLPRPRPRPVLCPRP,-0.0142
24,RRIRDRPPRLPRPRPRPKVRPRP,0.00434
25,RRIRHRPPRLPRPRPRPYLTPRP,-0.556

row,Sequence,shrunken log2 fold change
1,RRIRARPPRLPRPRPRPGVRPRP,0.797
2,RRIRKRPPRLPRPRPRPCYCPRP,-0.0227
3,RRIRARPPRLPRPRPRPFREPRP,-0.14
4,RRIRNRPPRLPRPRPRPMWGPRP,-0.018
5,RRIRRRPPRLPRPRPRPDVLPRP,0.0203
6,RRIRRRPPRLPRPRPRPIYLPRP,-0.205
7,RRIRIRPPRLPRPRPRPERAPRP,0.761
8,RRIRFRPPRLPRPRPRPYNPPRP,-0.237
9,RRIRSRPPRLPRPRPRPVKIPRP,-0.131
10,RRIRTRPPRLPRPRPRPLRAPRP,1.05
11,RRIRDRPPRLPRPRPRPRLRPRP,0.122
12,RRIRMRPPRLPRPRPRPKFVPRP,0.0832
13,RRIRSRPPRLPRPRPRPGMCPRP,0.0439
14,RRIRFRPPRLPRPRPRPRDNPRP,-0.173
15,RRIRERPPRLPRPRPRPHMEPRP,-0.118
16,RRIRIRPPRLPRPRPRPFYRPRP,-0.194
17,RRIRDRPPRLPRPRPRPHAFPRP,-0.0699
18,RRIRQRPPRLPRPRPRPQHPPRP,-0.131
19,RRIRYRPPRLPRPRPRPMNLPRP,-0.0114
20,RRIRWRPPRLPRPRPRPCNWPRP,0.136
21,RRIRMRPPRLPRPRPRPIQCPRP,-0.239
22,RRIRLRPPRLPRPRPRPDKDPRP,0.0388
23,RRIRCRPPRLPRPRPRPMGTPRP,-0.159
24,RRIRERPPRLPRPRPRPDNVPRP,0.0262
25,RRIRNRPPRLPRPRPRPWNVPRP,0.00489

# — the supplement of paper PMC9112550, “Optimization of the antimicrobial peptide Bac7 by deep mutational scanning” (BMC Biology, 2022)
